Source: patent US8440628B2, “Medical compositions containing ghrelin” (Daiichi Sankyo Company, Limited, priority 2002, dated 2013)

Legend:
Type in all cases: physicochemical
[1] = Stability of human ghrelin in Britton-Robinson buffer solutions of various pH at 40°C (Example 3); conditions: pH range of 3 to 6, stored at 40° C. for 1 day (FIG. 3)
Experimental: Human ghrelin, which is one of the ghrelins, was dissolved in the Britton-Robinson buffer solutions which is adjusted by combining 0.04M phosphoric acid-acetic acid-boric acid aqueous solution and 0.2M sodium hydrate aqueous solution in appropriate ratio, having pH of 2.1, 3.1, 4.0, 5.0, 6.0, 7.0 and 7.9 to obtain an aqueous solution containing human ghrelin in the concentration of about 0.15 μmol/mL (0.5 mg/mL). The obtained solution was filled in brownish glass ampoules and the ampoules were sealed with fire. For the calculation of kinetic constant, the certain degrees of degradation products have to be occurred in the aqueous solution of the ghrelins, and therefore, the ampoules were stored at 40±1° C., which was severe conditions for storage. The concentration (residual ratio) of human ghrelin was conducted by HPLC with time. At the same time, the pH of the solution was measured and it was confirmed that there was no significant changes of pH in solution.
The kinetic constants in each pH solution were calculated from the sequential change of the residual ratio, and the results were shown in FIG. 2.

[2] = Stability of human ghrelin in pH-adjusted purified water at 25°C (Example 7); conditions: for Peak area ratio to total peak area: 25±2°C
Experimental: Human ghrelin was dissolved in the purified water with about 0.03 μmol/mL (0.1 mg/mL). […] This solution was divided into quarter, and one portion was kept alone and the pH values of the remaining three portions were adjusted to pH 1.8 (with 17 mM of hydrochloric acid), pH 3.9 (with 0.20 mM of hydrochloric acid) and pH 7.8 (with 0.24 mM of sodium hydroxide) respectively, by adding along with hydrochloric acid or sodium hydroxide aqueous solution.

[3] = Stability of human ghrelin in 0.1M HCl and Mcllvain buffer solutions of various pH at 25°C (Example 2, HPLC peak area ratio)
Experimental: Human ghrelin was dissolved in the following aqueous solutions in the concentration of about 0.15 μmol/mL (0.5 mg/mL).
0.1M HCl aqueous solution (pH: 1.1)
The pH was adjusted with 0.1M citric aqueous acid and 0.2M dibasic sodium phosphate aqueous solution.
Each solution were stored at 25±2° C. for 8, 24, 48 and 72 hours respectively, and the obtained solutions were detected by HPLC analysis in comparison to the solutions before storage. […] No significant changes of pH in solution before storage and after storage were observed.

desacylated human ghrelin (GSSFLSPEHQRVQQRKESKKPPAKLQPR; Ghrelin-28 desacyl; UniProt Q9UBU3 24-51, looked up) [Desacyl compound, degradation product obtained from the hydrolytic cleavage of octanoyl group of human ghrelin]
Production of the degradation product in human ghrelin solution [1]: inhibited | Production of the degradation product in human ghrelin solution ([2]; aqueous solution of pH 3.9 and 4.7, 25±2°C, up to 3 days): inhibited | Peak area ratio to total peak area ([2]; human ghrelin 0.1 mg/mL in purified water adjusted to pH 1.8 with hydrochloric acid, 1 day after): 1.46% | Peak area ratio to total peak area ([2]; human ghrelin 0.1 mg/mL in purified water adjusted to pH 1.8 with hydrochloric acid, before storage): 0.12% | Peak area ratio to total peak area ([2]; human ghrelin 0.1 mg/mL in purified water adjusted to pH 3.9 with hydrochloric acid, 1 day after): 0.09% | Peak area ratio to total peak area ([2]; human ghrelin 0.1 mg/mL in purified water adjusted to pH 3.9 with hydrochloric acid, 3 days after): 0.14% | Peak area ratio to total peak area ([2]; human ghrelin 0.1 mg/mL in purified water adjusted to pH 3.9 with hydrochloric acid, before storage): 0.07% | Peak area ratio to total peak area ([2]; human ghrelin 0.1 mg/mL in purified water adjusted to pH 7.8 with sodium hydroxide, 1 day after): 3.65% | Peak area ratio to total peak area ([2]; human ghrelin 0.1 mg/mL in purified water adjusted to pH 7.8 with sodium hydroxide, 3 days after): 9.84% | Peak area ratio to total peak area ([2]; human ghrelin 0.1 mg/mL in purified water adjusted to pH 7.8 with sodium hydroxide, before storage): 0.33% | Peak area ratio to total peak area ([2]; human ghrelin 0.1 mg/mL in purified water, pH 4.7 (not adjusted), 1 day after): 0.15% | Peak area ratio to total peak area ([2]; human ghrelin 0.1 mg/mL in purified water, pH 4.7 (not adjusted), 3 days after): 0.28% | Peak area ratio to total peak area ([2]; human ghrelin 0.1 mg/mL in purified water, pH 4.7 (not adjusted), before storage): 0.06% | Production of the degradation product in human ghrelin solution ([3]; Mcllvain buffer, pH range of 3.0 to 5.0, 25±2°C, up to 72 hours): inhibited | Peak area ratio to total peak area ([3]; human ghrelin 0.5 mg/mL in 0.1M HCl aqueous solution, pH 1, 25±2°C, 8 hr. after): 4.88% | Peak area ratio to total peak area ([3]; human ghrelin 0.5 mg/mL in 0.1M HCl aqueous solution, pH 1, 25±2°C, 8 hr. after, listed as desacyl compound): more than 3% | Peak area ratio to total peak area ([3]; human ghrelin 0.5 mg/mL in 0.1M HCl aqueous solution, pH 1, 25±2°C, 24 hr. after): 13.31% | Peak area ratio to total peak area ([3]; human ghrelin 0.5 mg/mL in 0.1M HCl aqueous solution, pH 1, 25±2°C, 48 hr. after): 24.63% | Peak area ratio to total peak area ([3]; human ghrelin 0.5 mg/mL in 0.1M HCl aqueous solution, pH 1, 25±2°C, 72 hr. after): 34.17% | Peak area ratio to total peak area ([3]; human ghrelin 0.5 mg/mL in 0.1M HCl aqueous solution, pH 1, 25±2°C, before storage): 0.27% | Peak area ratio to total peak area ([3]; human ghrelin 0.5 mg/mL in Mcllvain buffer, pH 2, 25±2°C, 8 hr. after): 0.34% | Peak area ratio to total peak area ([3]; human ghrelin 0.5 mg/mL in Mcllvain buffer, pH 2, 25±2°C, 24 hr. after): 0.89% | Peak area ratio to total peak area ([3]; human ghrelin 0.5 mg/mL in Mcllvain buffer, pH 2, 25±2°C, 48 hr. after): 1.76% | Peak area ratio to total peak area ([3]; human ghrelin 0.5 mg/mL in Mcllvain buffer, pH 2, 25±2°C, 48 hr. after, listed as desacyl compound): more than 1% | Peak area ratio to total peak area ([3]; human ghrelin 0.5 mg/mL in Mcllvain buffer, pH 2, 25±2°C, 72 hr. after): 2.59% | Peak area ratio to total peak area ([3]; human ghrelin 0.5 mg/mL in Mcllvain buffer, pH 2, 25±2°C, before storage): 0.10% | Peak area ratio to total peak area ([3]; human ghrelin 0.5 mg/mL in Mcllvain buffer, pH 3, 25±2°C, 8 hr. after): 0.20% | Peak area ratio to total peak area ([3]; human ghrelin 0.5 mg/mL in Mcllvain buffer, pH 3, 25±2°C, 24 hr. after): 0.38% | Peak area ratio to total peak area ([3]; human ghrelin 0.5 mg/mL in Mcllvain buffer, pH 3, 25±2°C, 48 hr. after): 0.67% | Peak area ratio to total peak area ([3]; human ghrelin 0.5 mg/mL in Mcllvain buffer, pH 3, 25±2°C, 72 hr. after): 0.98% | Peak area ratio to total peak area ([3]; human ghrelin 0.5 mg/mL in Mcllvain buffer, pH 3, 25±2°C, before storage): 0.10% | Peak area ratio to total peak area ([3]; human ghrelin 0.5 mg/mL in Mcllvain buffer, pH 4, 25±2°C, 8 hr. after): 0.12% | Peak area ratio to total peak area ([3]; human ghrelin 0.5 mg/mL in Mcllvain buffer, pH 4, 25±2°C, 24 hr. after): 0.21% | Peak area ratio to total peak area ([3]; human ghrelin 0.5 mg/mL in Mcllvain buffer, pH 4, 25±2°C, 48 hr. after): 0.37% | Peak area ratio to total peak area ([3]; human ghrelin 0.5 mg/mL in Mcllvain buffer, pH 4, 25±2°C, 72 hr. after): 0.51% | Peak area ratio to total peak area ([3]; human ghrelin 0.5 mg/mL in Mcllvain buffer, pH 4, 25±2°C, before storage): 0.09% | Peak area ratio to total peak area ([3]; human ghrelin 0.5 mg/mL in Mcllvain buffer, pH 5, 25±2°C, 8 hr. after): 0.14% | Peak area ratio to total peak area ([3]; human ghrelin 0.5 mg/mL in Mcllvain buffer, pH 5, 25±2°C, 24 hr. after): 0.24% | Peak area ratio to total peak area ([3]; human ghrelin 0.5 mg/mL in Mcllvain buffer, pH 5, 25±2°C, 48 hr. after): 0.45% | Peak area ratio to total peak area ([3]; human ghrelin 0.5 mg/mL in Mcllvain buffer, pH 5, 25±2°C, 72 hr. after): 0.61% | Peak area ratio to total peak area ([3]; human ghrelin 0.5 mg/mL in Mcllvain buffer, pH 5, 25±2°C, before storage): 0.10% | Peak area ratio to total peak area ([3]; human ghrelin 0.5 mg/mL in Mcllvain buffer, pH 6, 25±2°C, 8 hr. after): 0.28% | Peak area ratio to total peak area ([3]; human ghrelin 0.5 mg/mL in Mcllvain buffer, pH 6, 25±2°C, 24 hr. after): 0.70% | Peak area ratio to total peak area ([3]; human ghrelin 0.5 mg/mL in Mcllvain buffer, pH 6, 25±2°C, 48 hr. after): 1.33% | Peak area ratio to total peak area ([3]; human ghrelin 0.5 mg/mL in Mcllvain buffer, pH 6, 25±2°C, 48 hr. after, listed as desacyl compound): more than 1% | Peak area ratio to total peak area ([3]; human ghrelin 0.5 mg/mL in Mcllvain buffer, pH 6, 25±2°C, 72 hr. after): 1.97% | Peak area ratio to total peak area ([3]; human ghrelin 0.5 mg/mL in Mcllvain buffer, pH 6, 25±2°C, before storage): 0.10% | Peak area ratio to total peak area ([3]; human ghrelin 0.5 mg/mL in Mcllvain buffer, pH 7, 25±2°C, 8 hr. after): 0.92% | Peak area ratio to total peak area ([3]; human ghrelin 0.5 mg/mL in Mcllvain buffer, pH 7, 25±2°C, 24 hr. after): 2.70% | Peak area ratio to total peak area ([3]; human ghrelin 0.5 mg/mL in Mcllvain buffer, pH 7, 25±2°C, 24 hr. after, listed as desacyl compound): more than 1% | Peak area ratio to total peak area ([3]; human ghrelin 0.5 mg/mL in Mcllvain buffer, pH 7, 25±2°C, 48 hr. after): 5.22% | Peak area ratio to total peak area ([3]; human ghrelin 0.5 mg/mL in Mcllvain buffer, pH 7, 25±2°C, 72 hr. after): 7.67% | Peak area ratio to total peak area ([3]; human ghrelin 0.5 mg/mL in Mcllvain buffer, pH 7, 25±2°C, before storage): 0.16% | Peak area ratio to total peak area ([3]; human ghrelin 0.5 mg/mL in Mcllvain buffer, pH 8, 25±2°C, 8 hr. after): 3.92% | Peak area ratio to total peak area ([3]; human ghrelin 0.5 mg/mL in Mcllvain buffer, pH 8, 25±2°C, 8 hr. after, listed as desacyl compound): more than 3% | Peak area ratio to total peak area ([3]; human ghrelin 0.5 mg/mL in Mcllvain buffer, pH 8, 25±2°C, 24 hr. after): 10.57% | Peak area ratio to total peak area ([3]; human ghrelin 0.5 mg/mL in Mcllvain buffer, pH 8, 25±2°C, 48 hr. after): 19.54% | Peak area ratio to total peak area ([3]; human ghrelin 0.5 mg/mL in Mcllvain buffer, pH 8, 25±2°C, 72 hr. after): 27.26% | Peak area ratio to total peak area ([3]; human ghrelin 0.5 mg/mL in Mcllvain buffer, pH 8, 25±2°C, before storage): 0.47%
